Changes are numbered by the printed parent chain.
T1: ALPL expressed on the surface of CHO cells (CHO-ALPL) (Homo sapiens, UniProt P05186)
T1 construct: expressed in transfected cells
T1 sequence (P05186 18-501 limits assumed): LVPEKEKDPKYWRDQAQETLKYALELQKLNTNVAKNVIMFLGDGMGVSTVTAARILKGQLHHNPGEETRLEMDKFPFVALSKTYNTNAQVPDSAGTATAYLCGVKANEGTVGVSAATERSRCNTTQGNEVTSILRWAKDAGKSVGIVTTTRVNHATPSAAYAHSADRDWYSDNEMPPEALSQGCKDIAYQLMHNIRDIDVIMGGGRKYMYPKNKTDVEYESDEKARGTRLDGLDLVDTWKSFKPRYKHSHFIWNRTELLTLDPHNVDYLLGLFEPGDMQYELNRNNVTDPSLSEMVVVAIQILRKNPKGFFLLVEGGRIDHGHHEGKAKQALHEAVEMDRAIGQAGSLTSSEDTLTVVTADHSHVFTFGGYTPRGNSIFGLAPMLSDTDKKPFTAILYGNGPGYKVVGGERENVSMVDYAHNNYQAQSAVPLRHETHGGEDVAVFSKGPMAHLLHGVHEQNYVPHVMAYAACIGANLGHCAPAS

B1: D04: ALPP/ALPPL2 targeting VHH domain, SEQ ID NO: 26 (protein)
VHH: QVQLVESGGGLVQPGGSLRLSCAASESTFSINVMGWYRQAPGKQRELVATITSGDITNYADSVKGRFTISRDNAENTVYLRTNSLKPEDTAVYYCNARGEYHSGNEYDYWGQGTQVTVSS
B2: F08: ALPP/ALPPL2 targeting VHH domain, SEQ ID NO: 35 (protein)
VHH: QVQLVESGGGSVQAGGSLRLSCAASGPSLSNYAMGWFRQAPGKEREFVAGISWGGGRTSYTDSVKGRFTISRDNAKNTVYLQMNNLKPEDTGVYYCAGRYGRGRNVEYEYDYWGQGTQVTVSS
B3: C07: ALPP/ALPPL2 targeting VHH domain, SEQ ID NO: 25 (protein)
VHH: QVQLVESGGGLVQAGESLRLACAASGTIFSGNAVGWYRQAPEKQREWVSSITDYGDTDYAEAVKGRFTISRDNAKNTVYLQMNSLKPEDTAVYYCYVYQRGESEEYWGQGTQVTVSS
B4: B01: ALPP/ALPPL2 targeting VHH domain, SEQ ID NO: 20 (protein)
VHH: QVQLVESGGGLVQAGGSLRLSCEVTRSPMPIDTMAWYRQAPGRQRELVAIISRSGSTNYADSVKGRFTISRNDTKSTMYKSTMYLKMNTLELEDTGVYYCNAVGLWNGAEYWGQGTQVTVSS
B5: E10: ALPP/ALPPL2 targeting VHH domain, SEQ ID NO: 31 (protein)
VHH: QVQLVESGGGLVQAGGSLRLSCAVSGRALSDYNIGWFRQAPGKEREFVARKTWDGSSTRYDDSVKGRFTVSIEDAKNTAYLQMSSLKTEDTAVYYCAAGRYSRARGWEYDYWGQGTQVTVSS
B6: F05: ALPP/ALPPL2 targeting VHH domain, SEQ ID NO: 34 (protein)
VHH: B5 VHH with V24A, L29F, S30G, K51R, E73D, D74N, S84N, A104V
B7: A06: ALPP/ALPPL2 targeting VHH domain, SEQ ID NO: 17; tested C-terminally His-tagged (protein)
VHH: QVHLVESGGGLVQAGGSLRLSCAASGRTFLSMGWFRQAPGKEREFVAAISWTGGSTGYADSVKGRFTISRESDKETMYLQMNSLKPEDTAVYYCAARGDVYYGGDDATRYKYWGQGTQVTVSS
modifications: C-terminal His tag
notes: tested C-terminally His-tagged
B8: A05: ALPP/ALPPL2 targeting VHH domain, SEQ ID NO: 16; tested C-terminally His-tagged (protein)
VHH: QVQLVESGGGLVQAGASLTLSCAASGFTFNTRSIVWFRQAPGKEREAVSCISKVAGSTYYGDSVQGRFSSSTDNAKNTVSLQMNSLKPEDTAVYTCAASFAPNCYGWSVAANMEYWGEGTMVTVSS
modifications: C-terminal His tag
notes: as for B7
B9: E06: ALPP/ALPPL2 targeting VHH domain, SEQ ID NO: 30 (protein)
VHH: QVHLVESGGGLVQAGGSLRLSCAASRRSFSEYAMGWFRQAPGKEREFVAAIGWSGVIEYADSVKGRFTISRDNAKDTVYLQMNSLKPEDTAVYYCAAGLGIRVVSQTPAYWGQGTQVTVSS
B10: D10: ALPP targeting VHH domain, SEQ ID NO: 28 (protein)
VHH: QVQLVESGGGLVQPGGSLRLSCAASGSIFSVNTMGWYRQAPGKQRDLVAVATSGGTIHYADSVKGRFTISRDNAKNTVYLQMNSLKPEDTAVYYCNLVVPYGMIAGDHDYWGQGTKVTVSS

Target: ALPP (Homo sapiens, UniProt P05187)
Sequence (P05187 with tags, fused parts or gaps): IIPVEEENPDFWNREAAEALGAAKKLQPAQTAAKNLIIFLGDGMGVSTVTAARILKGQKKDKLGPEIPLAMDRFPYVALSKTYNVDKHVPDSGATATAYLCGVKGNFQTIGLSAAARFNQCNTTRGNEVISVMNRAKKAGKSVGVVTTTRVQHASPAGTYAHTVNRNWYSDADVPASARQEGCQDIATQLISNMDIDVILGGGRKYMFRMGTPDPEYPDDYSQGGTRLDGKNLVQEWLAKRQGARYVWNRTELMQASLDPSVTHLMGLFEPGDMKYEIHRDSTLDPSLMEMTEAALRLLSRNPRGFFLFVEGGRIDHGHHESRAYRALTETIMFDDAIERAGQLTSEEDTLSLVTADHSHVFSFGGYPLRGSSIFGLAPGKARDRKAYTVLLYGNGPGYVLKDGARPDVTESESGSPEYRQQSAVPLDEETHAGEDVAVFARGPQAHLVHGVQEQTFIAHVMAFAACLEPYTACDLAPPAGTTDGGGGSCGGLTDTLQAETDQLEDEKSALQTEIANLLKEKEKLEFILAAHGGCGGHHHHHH
Assay: Epitope binning by BLI competition assay
Type: binding
Details: BLI competition on immobilised ALPP
Procedure: To determine epitope cross reactivity BLI competition assays were conducted. AR2G sensors were used and ALPP immobilised as above. ALPP sensors were then dipped into a well containing a saturating concentration of the initial binder for ten minutes to get an association curve. The sensor was then dipped into a well containing the same concentration of initial binder plus 20 nM of a secondary binding.
An increase in the association curve was indicative that the second VHH bound to a distinct epitope from the initial binder. Monomers with identical CDR3s were grouped as likely to be in the same epitope bin and only one from each group used in the epitope binning experiment.

epitope bin	Molecule
four	B1
one	B2
four	B3
three	B4
one	B5
one	B6
two	B7
one	B8
one	B9
five	B10

Target: T1, ALPL expressed on the surface of CHO cells (CHO-ALPL)
Assay: Cell-surface binding by flow cytometry, CHO-ALPL
Details: VHH His proteins
Procedure: C-terminal His tagged VHH proteins were assessed for ALPP, ALPPL2, ALPI and ALPL cell-surface binding by flow cytometry. Binders encompassing different epitope bins were screened on CHO cells stably expressing ALPP, ALPPL2, ALPI or ALPL. High levels of cell-surface proteins expression were confirmed for each of the cell-lines by flow cytometry.
Cell surface binding of test agents to hALPP isoforms was characterized in four CHO-ALPP isoform stably transfected cell lines (CHO-ALPP, CHO-ALPPL2, CHO-ALPI and CHO-ALPL) and the resulting KDapp values determined. Adherent cells were detached from tissue culture flasks by incubating with 0.1% EDTA/PBS solution at 37° C. for ~10 minutes or until cells detached easily. Cells were re-suspended in ice-cold PBS/2% FCS in 15 ml tubes and centrifuged at 1700 rpm for 5 mins at 4° C. Supernatant was removed and the cell pellet re-suspended in PBS/2% FCS. A cell count was performed using a Chemometec Nucleocounter NC-202 and 2.5×10^5 cells were aliquoted per test sample into a 96 well plate. Cells were incubated with 100 μl of test agents at a range of concentrations, plus controls for 1 hr on ice. The sample plate was centrifuged at 1700 rpm for 5 mins at 4° C. The supernatant was removed, and a wash performed by re-suspending the cell pellets in 0.25 mL of ice-cold PBS/2% FCS using a multichannel pipette. Samples were again centrifuged at 1700 rpm for 5 min at 4° C. Supernatant was removed and two further washes performed as described. After the final wash and centrifugation step, excess liquid was removed by blotting the plate on tissue paper. Binding of VHH (His6 tagged) agents was determined by adding 100 μl of anti-x6His tag Ab (Abcam) per cell pellet sample as appropriate and incubating on ice for 30 mins. Wash steps were performed as described previously. Fitc-anti-mouse antibody (ThermoFisher) was used to detect binding of the VHH (His6 tagged) agents by incubating with the appropriate samples for 30 min on ice in the dark. Wash steps were performed as described previously. All cell pellets were finally re-suspended in […] of ice-cold PBS/2% FCS and left on ice in the dark prior to analysis on a Merck-Millipore Guava EasyCyte HT or Thermo Fisher Attune N×T flow cytometer.
VHH-hFc proteins were assessed for human ALPP, ALPPL2, ALPI and ALPL cell-surface binding by flow cytometry. Binders were screened on CHO cells stably expressing human ALPP, ALPPL2, ALPI or ALPL.
Cell surface binding of test agents to hALPP isoforms was characterized in four CHO-ALPP isoform transfectant cell lines (CHO-ALPP, CHO-ALPPL2, CHO-ALPI and CHO-ALPL) and the resulting KDapp values determined. Adherent cells were detached from tissue culture flasks by incubating with 0.1% EDTA/PBS solution at 37° C. for ~10 minutes or until cells detached easily. Cells were re-suspended in ice-cold PBS/2% FCS in 15 ml tubes and centrifuged at 1700 rpm for 5 mins at 4° C. Supernatant was removed and the cell pellet re-suspended in PBS/2% FCS. A cell count was performed using a Chemometec Nucleocounter NC-202 and 2.5×10^5 cells were aliquoted per test sample into a 96 well plate. Cells were incubated with 100 μl of test agents at a range of concentrations, plus controls for 1 hr on ice. The sample plate was centrifuged at 1700 rpm for 5 mins at 4° C. The supernatant was removed, and a wash performed by re-suspending the cell pellets in 0.25 mL of ice-cold PBS/2% FCS using a multichannel pipette. Samples were again centrifuged at 1700 rpm for 5 min at 4° C. Supernatant was removed and two further washes performed as described. After the final wash and centrifugation step, excess liquid was removed by blotting the plate on tissue paper. Binding of VHH-hFc agents was determined by adding 100 μl of Fitc-anti-human Ab (ThermoFisher) and incubating for 30 mins on ice in the dark. Wash steps were performed as described previously. […]

KDapp CHO-ALPL	Molecule
No binding	B1
No binding	B2
No binding	B3
No binding	B4
No binding	B5
No binding	B6
No binding	B7
No binding	B8
No binding	B9
No binding	B10

From US20260216242A1, “ALPP-SPECIFIC VARIANT ANTIGEN BINDING MOLECULES” (ALMAC DISCOVERY LIMITED, priority 2022, published 2026)
